In patent US20230017777, “MONOCYTE AND MACROPHAGE BINDING APTAMERS AND THEIR APPLICATION” (University of Washington, published 2023):

T1: CD14 (UniProt P08571 P08571:20-345)
T1 sequence: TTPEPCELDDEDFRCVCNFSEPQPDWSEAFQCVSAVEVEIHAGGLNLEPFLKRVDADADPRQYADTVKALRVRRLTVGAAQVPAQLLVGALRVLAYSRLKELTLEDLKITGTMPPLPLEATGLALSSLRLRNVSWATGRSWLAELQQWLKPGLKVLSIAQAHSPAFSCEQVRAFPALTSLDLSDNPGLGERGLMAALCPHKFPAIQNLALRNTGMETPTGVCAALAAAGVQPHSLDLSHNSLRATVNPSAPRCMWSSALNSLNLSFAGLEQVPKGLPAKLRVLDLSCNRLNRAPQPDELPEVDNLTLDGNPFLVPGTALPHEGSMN

B1: SCRM (scrambled / nonspecific control aptamer) (ssDNA)
DNA: ATCCAGAGTGACGCAGCAATGATAGTGACGTACGGACTAGGGATCACCCATATCATGTAGAGGAAGTACGTGGACACGGTGGCTTAGT
B2: A2 (ssDNA)
DNA: ATCCAGAGTGACGCAGCAGAAGAGTAGATGAAACGTTTTTTCGCCCGATAAAAGGGACGTGCGTCAGACATGGACACGGTGGCTTAGT

How the values were obtained:
CD14 [1] = molecular target: T1, CD14; assay: BLI; nonspecific aptamer control; conditions: label: Cy5 (flow cytometry)
CD14 [2] = molecular target: T1, CD14; assay: BLI; no significant binding over SCRM; figure legend calls it SPR, text says BLI (Octet Red96); conditions: label: Cy5

Row | Binder | binding result (CD14 [1]) | binding result (CD14 [2])
1 | B1 | no binding | –
2 | B2 | – | no binding
